{"source": "paper PMC9163697", "about": "“Mechanistic insights into the activation of the IKK kinase complex by the Kaposi’s sarcoma herpes virus oncoprotein vFLIP” (The Journal of Biological Chemistry, 2022)", "binders": {"B1": {"name": "IKKγ(150–272) (domain or fragment, UniProt Q9Y6K9 150-272, looked up)", "chain": "LGELQESQSRLEAATKECQALEGRARAASEQARQLESEREALQQQHSVQVDQLRMQGQSVEAALRMERQAASEEKRKLAQLQVAYHQLFQEYDNHIKSSVVGSERKRGMQLEDLKQQLQQAEE", "notes": "IKKγ (Nemo), regulatory subunit of the IKK kinase complex, residues 150-272; also called Nemo; WT IKKγ"}}, "key": {"[1]": {"molecular_target": "T1, WT vFLIP(1–177) (Kaposi's sarcoma-associated herpes …, UniProt Q76RF1 1-177)", "T1 construct": "vFLIP of the Kaposi's sarcoma-associated herpes virus (KSHV), residues 1-177; also called recombinant vFLIP; source: mutants said to be expressed in E. coli", "test": "native MS; proteins and complexes exchanged into 200 mM ammonium acetate pH 8.5, 3.2 μM, nanoelectrospray, Synapt QToF; collision-induced dissociation of selected species", "settings": "both partners purified"}, "[2]": {"molecular_target": "the molecule itself", "test": "native MS; proteins and complexes exchanged into 200 mM ammonium acetate pH 8.5, 3.2 μM, nanoelectrospray, Synapt QToF; collision-induced dissociation of selected species"}, "[3]": {"molecular_target": "T1, WT vFLIP(1–177)", "test": "native gel or EMSA; blue native gel (4–20%), 8–10 μg of purified complexes of IKKγ(150–272) with vFLIP or complexes assembled from the concentrated proteins; bands excised and analysed by SDS-PAGE", "settings": "both partners purified"}}}
{"binder": "B1", "values": [{"measurement": "stoichiometry N", "setting": "[1]", "result": 0.5, "unit": "vFLIP per IKKγ"}, {"measurement": "binding result", "setting": "[2]", "result": "binds"}, {"measurement": "stoichiometry N", "setting": "[3]", "result": 1, "unit": "vFLIP per IKKγ"}]}
